Experiment [1] addresses T1, CD137 on the surface of cells (activated human T cells; engineered CHO cells) (human, UniProt Q07011 24-255).
T1 construct: whole, on cells; also called human CD137; cell surface expressed CD137
The experiment is described as follows: flow cytometry on activated pan T cells gated CD8, anti-hFc APC MFI. A general note: Flow cytometry measures light scatter and fluorescence of single cells or particles in a stream.

Experiment [2] concerns the target T2, HER2/neu on the surface of target cells (N87, JIMT-1, MCF-7, MDA-MB231) (UniProt P04626 23-1255, limits assumed).
T2 construct: whole, on cells
Description: flow cytometry on N87 gastric cancer cells, anti-hFc APC MFI.

Experiment [3] deals with T3, extracellular portion of human HER2 fused to a histidine-containing peptide (human, UniProt P04626 23-652).
T3 construct: extracellular domain; also called huHER2; Human HER2/neu
The experiment is described as follows: SPR (BIACORE); antibody captured on anti-human Fc; huHER2 6.25-50 nM; 1:1 Langmuir. From the text:
The humanized variants were selected to have improved binding affinity as compared to the parental murine antibody and as described may be further engineered to eliminate sequence liabilities (e.g., isomerization, deamidation sites) as described above. The binding affinity of several combinations of humanized VH and VL domains was examined by BIACORE®. Thus, an extracellular portion of human HER2 fused to a histidine-containing peptide (“huHER2”) was passed over a surface coated with immobilized antibody. Briefly, each test molecule was captured onto an F(ab)₂ goat-anti-human Fc-coated surface and then incubated in the presence of different concentrations (6.25 nM-50 nM) of huHER2. The kinetics of binding were determined via BIACORE® analysis binding (normalized 1:1 Langmuir binding model).
(In general: In SPR one partner is held on a chip, and binding of the other changes the refractive index at the surface.)

The target in experiment [4] is T1, CD137 on the surface of cells …. Description: flow cytometry on activated pan T cells (donor D46433, CD8 PE), anti-hFc APC MFI.
The target of experiment [5] is T2, HER2/neu on the surface of target cells …. Description: flow cytometry on JIMT-1 cells, anti-hFc APC MFI.
Experiment [6] has the same target. The experiment is described as follows: flow cytometry on N87 cells, anti-hFc APC MFI.
Experiment [7] has the same target. Description: flow cytometry on MCF-7 cells, anti-hFc APC MFI.

By EC50 (read off the curve) is commonly meant the concentration that produces a half-maximal response. Lower therefore signals higher potency in that assay. The Kd is the constant that tells how readily two partners part at equilibrium. Broadly, the koff is the first-order rate constant of dissociation. Usually kon stands for the second-order rate constant of association.

T1 sequence (Q07011 24-255, change not shown): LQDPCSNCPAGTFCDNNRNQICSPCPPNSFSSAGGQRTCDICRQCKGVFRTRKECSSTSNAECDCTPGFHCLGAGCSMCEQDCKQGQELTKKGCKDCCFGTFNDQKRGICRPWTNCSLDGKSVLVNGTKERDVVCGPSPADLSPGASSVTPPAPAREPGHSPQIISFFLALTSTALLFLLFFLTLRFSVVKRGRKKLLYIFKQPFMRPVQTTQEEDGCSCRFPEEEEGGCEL

B1: DART-E (bispecific antibody, human IgG1, kappa, L234A L235A)
heavy: QVQLQQPGAELVRPGASVKLSCKASGYTFTSYWINWVKQRPGQGLEWIGNIYPSDSYTNYNQKFKDKATLTVDKSSSTAYMQLSSPTSEDSAVYYCTRDYGSSYSFDYWGQGTTLTVSSASTKGPSVFPLAPSSKSTSGGTAALGCLVKDYFPEPVTVSWNSGALTSGVHTFPAVLQSSGLYSLSSVVTVPSSSLGTQTYICNVNHKPSNTKVDKRVEPKSCDKTHTCPPCPAPEAAGGPSVFLFPPKPKDTLMISRTPEVTCVVVDVSHEDPEVKFNWYVDGVEVHNAKTKPREEQYNSTYRVVSVLTVLHQDWLNGKEYKCKVSNKALPAPIEKTISKAKGQPREPQVYTLPPSREEMTKNQVSLSCAVKGFYPSDIAVEWESNGQPENNYKTTPPVLDSDGSFFLVSKLTVDKSRWQQGNVFSCSVMHEALHNRYTQKSLSLSPGK
light: DIQMTQTTSSLSASLGDRVTISCRPSQDISNYLNWYQQKPDGTVKLLIYYTSRLRSGVPSRFSGSGSGTDYSLTISNLEQEDIATYFCQQGDTLPYTFGGGTKLEIKRTVAAPSVFIFPPSDEQLKSGTASVVCLLNNFYPREAKVQWKVDNALQSGNSQESVTEQDSKDSTYSLSSTLTLSKADYEKHKVYACEVTHQGLSSPVTKSFNRGEC
chain 1: QVQLQQPGAELVRPGASVKLSCKASGYTFTSYWINWVKQRPGQGLEWIGNIYPSDSYTNYNQKFKDKATLTVDKSSSTAYMQLSSPTSEDSAVYYCTRDYGSSYSFDYWGQGTTLTVSSASTKGPSVFPLAPSSKSTSGGTAALGCLVKDYFPEPVTVSWNSGALTSGVHTFPAVLQSSGLYSLSSVVTVPSSSLGTQTYICNVNHKPSNTKVDKRVEPKSCDKTHTCPPCPAPEAAGGPSVFLFPPKPKDTLMISRTPEVTCVVVDVSHEDPEVKFNWYVDGVEVHNAKTKPREEQYNSTYRVVSVLTVLHQDWLNGKEYKCKVSNKALPAPIEKTISKAKGQPREPQVYTLPPSREEMTKNQVSLWCLVKGFYPSDIAVEWESNGQPENNYKTTPPVLDSDGSFFLYSKLTVDKSRWQQGNVFSCSVMHEALHNHYTQKSLSLSPGGGGSGGGSGGGDIQMTQSPSSLSASVGDRVTITCKASQDISNYLSWFQQKPGKAPKTLIYRANRLQSGVPSRFSGSGSGTDFTLTISSLQPEDFATYYCLQHDEFPWTFGQGTKLEIKGGGSGGGGQVQLVQSGAEVKKPGASVKVSCKASGYTFTNYGMNWVRQAPGQGLEWMGWINTNIGEPTYTEEFKGRVTMTRDTSISTAYMELSRLRSDDTAVYYCARDDGYGNRVSYWGQGTLVTVSSGGCGGGEVAALEKEVAALEKEVAALEKEVAALEK
chain 2: DIQMTQSPSSLSASVGDRVTITCKASQDISNYLSWFQQKPGKAPKTLIYRANRLQSGVPSRFSGSGSGTDFTLTISSLQPEDFATYYCLQHDEFPWTFGQGTKLEIKGGGSGGGGQVQLVQSGAEVKKPGASVKVSCKASGYTFTNYGMNWVRQAPGQGLEWMGWINTNIGEPTYTEEFKGRVTMTRDTSISTAYMELSRLRSDDTAVYYCARDDGYGNRVSYWGQGTLVTVSSGGCGGGKVAALKEKVAALKEKVAALKEKVAALKE
Consider B1, for which the “EC50 (read off the curve)” value in experiment [1] is ~100 pM. The binding result in experiment [2] is “binds”.

B2: hHER2 MAB-1 (1.2) (antibody, V domains shown)
VH: QVQLVQSGAEVKKPGASVKVSCKASGYTFTNYGMNWVRQAPGQGLEWMGWINTNIGEPTYTEEFKGRVTMTRDTSISTAYMELSRLRSDDTAVYYCARDDGYGNRVSYWGQGTLVTVSS
VL: DIQMTQSPSSLSASVGDRVTITCKASQDINTYLSWFQQKPGKAPKTLIYRANRLVEGVPSRFSGSGSGTDFTLTISSLQPEDFATYYCLQHDEFPWTFGQGTKLEIK
As to B2, in experiment [3], the Kd came out at 450 pM, the off-rate (koff) was determined as 0.00028 s⁻¹ and the association rate constant (kon) came out at 620000 M⁻¹ s⁻¹.

B3: hHER2 MAB-1 (1.3) (antibody, V domains shown)
VH: QVQLVQSGAEVKKPGASVKVSCKASGYTFTNYGMNWVRQAPGQGLEWMGWINTNIGEPTYTEEFKGRVTMTRDTSISTAYMELSRLRSDDTAVYYCARDDGYGNRVSYWGQGTLVTVSS
VL: DIQMTQSPSSLSASVGDRVTITCKASQDISNYLSWFQQKPGKAPKTLIYRANRLQSGVPSRFSGSGSGTDFTLTISSLQPEDFATYYCLQHDEFPWTFGQGTKLEIK
As for B3, in experiment [3], the Kd came out at 360 pM, the koff is 0.000223 s⁻¹ and the kon was 618000 M⁻¹ s⁻¹.

B4: DART-C (bispecific antibody)
chain 1: not shown
chain 2: DIQMTQSPSSLSASVGDRVTITCKASQDISNYLSWFQQKPGKAPKTLIYRANRLQSGVPSRFSGSGSGTDFTLTISSLQPEDFATYYCLQHDEFPWTFGQGTKLEIKGGGSGGGGQVQLVQSGAEVKKPGASVKVSCKASGYTFTSYWINWVKQAPGQGLEWIGNIYPSDSYTNYNQKFKDKATITADKSTSTAYMELSSLRSEDTAVYYCTRDYGSSYSFDYWGQGTTVTVSSGGCGGGKVAACKEKVAALKEKVAALKEKVAALKE
Regarding B4, the “EC50 (read off the curve)” value in experiment [1] was ~100 pM; in experiment [2], ~500 pM.

B5: HER2 MAB-1 (antibody, V domains shown)
VH: EVQLQESGPELKKPGETVKISCKASGYTFTNYGMNWVKQAPGKGLKWMGWINTNIGEPTYTEEFKGRFAFSLGTSASTAFLQINNLKNEDTATYFCARDDGYGNRVSYWGQGTLVTVSA
VL: DILMTQSPLSMYTSLGERVTITCKASQDINSYLSWFQQKPGKSPKTLIYRANRLVDGVPSRFSGSGSGQDYSLTISSLEYEDMGIYYCLQHDEFPWTFGGGTKLEIK
notes: also called 8H11
With B5, in experiment [3], the Kd stood at 1270 pM, the koff was determined as 0.000654 s⁻¹ and the kon turned out to be 510000 M⁻¹ s⁻¹.

B6: TRIDENT-A3 (bispecific antibody, human IgG1, kappa, L234A L235A)
chain 1: DIQMTQSPSSLSASVGDRVTITCRPSQDISNYLNWYQQKPDKTVKLLIYYTSRLRSGVPSRFSGSGSGTDFTFTISSLQPEDIATYFCQQGDTLPYTFGQGTKLEIKGGGSGGGGQVQLVQSGAEVKKPGASVKVSCKASGYTFTSYWINWVKQAPGQGLEWIGNIYPSDSYTNYNQKFKDKATITADKSTSTAYMELSSLRSEDTAVYYCTRDYGSAYSYSLWGQGTTVTVSSASTKGEVAACEKEVAALEKEVAALEKEVAALEKGGGDKTHTCPPCPAPEAAGGPSVFLFPPKPKDTLMISRTPEVTCVVVDVSHEDPEVKFNWYVDGVEVHNAKTKPREEQYNSTYRVVSVLTVLHQDWLNGKEYKCKVSNKALPAPIEKTISKAKGQPREPQVYTLPPSREEMTKNQVSLWCLVKGFYPSDIAVEWESNGQPENNYKTTPPVLDSDGSFFLYSKLTVDKSRWQQGNVFSCSVMHEALHNHYTQKSLSLSPGK
chain 2: DIQMTQSPSSLSASVGDRVTITCRPSQDISNYLNWYQQKPDKTVKLLIYYTSRLRSGVPSRFSGSGSGTDFTFTISSLQPEDIATYFCQQGDTLPYTFGQGTKLEIKGGGSGGGGQVQLVQSGAEVKKPGASVKVSCKASGYTFTSYWINWVKQAPGQGLEWIGNIYPSDSYTNYNQKFKDKATITADKSTSTAYMELSSLRSEDTAVYYCTRDYGSAYSYSLWGQGTTVTVSSASTKGKVAACKEKVAALKEKVAALKEKVAALKE
heavy: QVQLVQSGAEVKKPGASVKVSCKASGYTFTNYGMNWVRQAPGQGLEWMGWINTNIGEPTYTEEFKGRVTMTRDTSISTAYMELSRLRSDDTAVYYCARDDGYGNRVSYWGQGTLVTVSSASTKGPSVFPLAPSSKSTSGGTAALGCLVKDYFPEPVTVSWNSGALTSGVHTFPAVLQSSGLYSLSSVVTVPSSSLGTQTYICNVNHKPSNTKVDKRVEPKSCDKTHTCPPCPAPEAAGGPSVFLFPPKPKDTLMISRTPEVTCVVVDVSHEDPEVKFNWYVDGVEVHNAKTKPREEQYNSTYRVVSVLTVLHQDWLNGKEYKCKVSNKALPAPIEKTISKAKGQPREPQVYTLPPSREEMTKNQVSLSCAVKGFYPSDIAVEWESNGQPENNYKTTPPVLDSDGSFFLVSKLTVDKSRWQQGNVFSCSVMHEALHNRYTQKSLSLSPGK
light: DIQMTQSPSSLSASVGDRVTITCKASQDISNYLSWFQQKPGKAPKTLIYRANRLQSGVPSRFSGSGSGTDFTLTISSLQPEDFATYYCLQHDEFPWTFGQGTKLEIKRTVAAPSVFIFPPSDEQLKSGTASVVCLLNNFYPREAKVQWKVDNALQSGNSQESVTEQDSKDSTYSLSSTLTLSKADYEKHKVYACEVTHQGLSSPVTKSFNRGEC
Consider B6, for which the “EC50 (read off the curve)” value was ~50 pM in experiment [4], ~700 pM in experiment [5], ~1000 pM in experiment [6] and ~200 pM in experiment [7].

The record behind these values is patent US20220406376A1 (MacroGenics, published 2022).
